We go through 20 sequences from the DeepSol protein solubility set.

A short description of this series: soluble on expression in E. coli; label from the status in PepcDB or PDB records.
Take “MGSDKIHHHHHHMKVLQFNQDATCCVVAASSHQISIFNCDPFGKCFEIDTKNSKKKTSNNNGSASNSESRNNEESILITNGSRDRTDAEEEEDNEDNALVTGNILKEGEFVIEMLFSTSLIAIADRGQGLNKGKKLKIVNTKRKCTICEIVFPHEIVDVVMNRKRMCVLLESDQIFIYDISCMKPLETIDLWEDHYKRSQANSFSNASNTGTLEGDSANLNRVATNLLANATQKSVNGSNPSVRTRRNSLRSKIRPRMVLSNDDRSILCFTAYSSPKKNKPNSEALYDVVIYDTLNVTPVNYLNSVHKGNVACLAVSHDGKLLATASDKGTIIRVFHTGVDSDYMSSRSLFKEFRRGTRLCNLYQLAFDKSMTMIGCVGDTDTIHLFKLDDASNSLPGDNSSNGHWNEEEYILASNSNPSMGTPKEIPLSKPRIANYFSKKIKSSIPNQNLSRNFAYITVNESNRSCLGFPDEFPNQVYIASDDGTFSIYSIPSKPGECVLTKNNKFT”: the “soluble on expression in E. coli” value is “not soluble”.
“MGSDKIHHHHHHMNVHVAVQTQAHRLDSNTAAFARDVLDGLTKPQKELSPKYFYDDTGSELFVEITRLPEYYPTRTELGILRDRAAEIAALIPPDAAIVEFGAGATTKIRLLLAAHQVAAYVPVDISGDFIITQAEALQRDFPQLAVHPLAADFTKPFALPPAVRDLPKVGFFPGSTIGNFEPQEARRFLESARDILGRGARMIIGVDLEKDENVLVPAYDDAAGVTGKFNLNLLIRINRELGADFDLSAFAHRAIYNRDQHRIEMHLVSLRDQSVHLFGERIGFRAGESIHTENSYKYSLERFRALAQQAGWTPARCWTDADAMFSVHAIETNGSRV”: the “soluble on expression in E. coli” value is “not soluble”.
In the case of “MADKSADIQTPAPAANTSISATQQPAIQQPNVSGTVWIRQKVALPPDAVLTVTLSDASLADAPSKVLAQKAVRTEGKQSPFSFVLSFNPADVQPNARILLSAAITVNDKLVFITDTVQPVINQGGTKADLTLVPVQQTAVPVQASGGATTTVPSTSPTQVNPSSAVPAPTQYLEHHHHHH”, the “soluble on expression in E. coli” value is “soluble”.
To “MSLDSWSRNFELLINSRTPLIWIRTKEEERLYKVIDKSCKKLNIKRFVSWDCVNGIKGVLNENGKFSNNPMGVLNWIKAQTSEIPTILLVRDFHKFYDDPSISRTIKELSSSLRETNNNLILSSHILPSSEELDDLITILNLPLPDLSELTALIKKIAFNTDSDLSEQDLNELAIASSGLSEIKVKQVTAKALAQRGKISKFDIKDMLEEKKQVIARSEGHHHHHH” belongs “soluble”; to “MKLHLEIWRQAGPNSEGHFEPIDVNDAVPQMSVLELLDHVNTGLIEEGKEPFVFASDCREGICGTCGLLVNGRPHGLDKNKPSCQQRLDHVPDGSTLKIEPLRSAAYPVVKDLLVDRSALDRVLEKGGFVSINAGTAPDADTLHQNHESAELALDH”, “not soluble”; to “MEDPLGRLEWIKFLSAFYDKEDKAENYFNQQVSKVMATENKVSSLKKPKVAFGMVDNGKVYIPAKNSYAAKMVDMAGGDYIFKDLNNKSGYITLEDFYSKSKDADVLIYSSSKEYTPSLKSMLSAAPILKTIKPVKNKKVWCFGKDYYQAIDKTDEIIEDLASIFHPESFKGLEHHHHHH”, “not soluble”.
“MGSDKIHHHHHHMSELLGLIVDARPLQAHFRIPHTSLLLDTYPFPPKTTAVGMLAGCMGLGEEGFKKLLEKIKYGVIIEDPGEKIEEVSVIYKNPYSPSYPITRVSLYKPRFRMFFAGEERVIEEAYEGLLDPKFVPYMGDSESLFYPGKKRYVEVVDVQEGKEDILRSVIPEVKFKEFVPLRRKVLVPKVYEAPVKFTYKGKSRRAVYGRFIAFSGGYVKLEKKIDVLLFDGEPIATF”: the “soluble on expression in E. coli” value was “not soluble”.
For “SPGRSSSNSGSTGFISFSGVESALSSLKNFQACINSGMDTASSVALDLVESQTEVSSEYSMDKAMVEFATLDRQLNHYVKAVQSTINHVKEERPEKIPDLKLLVEKKFLALQSKNSDADFQNNEKFVQFKQQLKELKKQCGLQADREADGTEGVDEDIIVTQSQTNFTCPITKEEMKKPVKNKVCGHTYEEDAIVRMIESRQKRKKKAYCPQIGCSHTDIRKSDLIQDEALRRAIENHNKKRHRHSE”, the “soluble on expression in E. coli” value was “soluble”.
In the case of “SYELTQPPSVSVAPGKTARITCGGNNIGSKSVHWYQQKPGQAPVLVVYDDSDRPSGIPERFSGSNSGNTATLTISRVEAGDEADYYCQVWDSSSDYVFGTGTKVTVLGQPKANPTVTLFPPSSEEFQANKATLVCLISDFYPGAVTVAWKADGSPVKAGVETTKPSKQSNNKYAASSYLSLTPEQWKSHRSYSCQVTHEGSTVEKTVAPTECS”, the “soluble on expression in E. coli” value was “soluble”.
With “MGSDKIHHHHHHMNMPNSFSNSHIYLGNVMHRRFSPKKHSFDYRLFMLALDVADVEKAQGGFGVFGFSWYRPLRFVETDYLKESIKDNSKDNLAGDPRSLSHRIKNKVHELAGYADIKRIVMLVQVRCFGIYFSPANFYFCYDQDDKCTQMLAEVSNTPWNERHYYLVDLLKEEGDKTTKKMFQVSPFMDLAMTYFWQVTPPCNGNDKLLVKIENKRVNDESGTVSKLFDASLVMRRKPFTKASLLRIWGQLPVMTMKVVVTIYWQALKLFIKRVPFIGYQKPS” the entry was “not soluble”; with “MSLKDKILTIDVGTGSTRAAIVRIDGAMIGFAQREYEQTTPRAGWSEQAPSLWWQAACDCIREVLYRYPETAAQIAVIGACGQMHGTVLLDDRGELVEDRALLWNDKRSQPQVDAFNAREGWEKWLAHLNNPPAAAWPAFKLAWWRENHPDRWSQLAKVLMPKDYINFMLTGAMATDYSEASCYFLMDSETRSWSSQACETFGLRVDQLPELKLSSDIIGQVTQPAADLTGLPAGIPVVAGTSDMAASLLGSGVYEPGMASDSTGTSTLMTVVSPRPLHHPLVNNLHLANAAWGGFTILDAGGDAVRWARLALADNQITHPQLLQEAAAVPAGAEGLLFLPYLTGERLAEHTNSRAQFFGLQRKHRRGHLFRAVLEGVAFASWRNLRQLQKCGQYPQQMIASGGGARSSLWLEIKASAYNLPILSTRNQENGVTGCGIIAGVGVGLYADFASGVRQTVQFEKLISPDPLLRDYYHACCELFDTLYRQSAALYDRLDALSEGHHHHHH”, “soluble”; with “MTHSPSFLQHALSSSDTRAEWPLPGGLAARWLAPGCVELNGDARGADSVLLSCGVHGNETAPIEVVDGMLTDIAAGQLALNCRLLVMFANLDAIRQGVRYGNYDMNRLFNGAHARHPELPESVRAAELETLAAEFFAGARARKLHYDLHTAIRGSVFEKFAIYPFLHDGRTHKREQLAWLQRCGIEAVLLHTQPANTFSYFTSQYCEADAFTLELGKARPFGQNDLSRFSGIDGALRGLLSNPQANVPDLDEDKLPLFRAKYDLVKHSEAFKLNLADSVENFTLLPDGMLIAEDGAVRYQATGGEERILFPNPAVKPGLRAGIVVEPARLPSRLEHHHHHH”, “soluble”.
To “MGSEIDQNDTDSSTQEWYRLLVVEKSTTLSDFMTSKRTKMVSDFPEEREEAIEEIIEVISTFPMDFLQKDEVSLLLNYFINSIESSALTGGAVIRGVHHLILKSKNLPDNFEVSLIRVLFKEGNVQSWAQKERQLQYEILIWFLKYRLSFLKGLGPDFLATFMKSVSGERDPRCLVHMFSAFLEVSNNFTLGPFTEDMFETIACYFPVEFKPQKTDTITREYLAASCASCLVSSPSFAPFCFLFIDEKLNDDDCSDEEYEDVLNLLILAYNRFPAQKKNLSLIEPLIGGIRKIGLNPKNKGEMQKYVSQAFEAVIKLCTKSSETNSKALDGIVSSIVEDSEPFVLQAEMGLCKKALTLLRSAFKSLPDKNSRQIFNQVIAWILNLIQGDSVNAAGNRADIVQEGLEYLVEWIQLASEYKELSIETLAVFEQSIFESCSRAREFKPREAITAIYECASVYFESDCASDELISQCRSYIALALRTPIDTDSDFQSLLKLIRIYSSKNFDQVEIILADNETNSWNAMKVLPVLCAISCSQRWNLLKNKIVDELGSTISSSTEISYLICYVQMMEKCKKDPQLFHQQFEVFESVLYKTDCNEPVSVSYLMQSISLLLSEDDHQKFMNQTTTRYQSLEGSSLDNFNQKYRLAYLQNKNTNDLKTIANLKLPERTIRQLFFAICNREAENENNSEIPEQHHIAEIKAKLLRNAPNSLSAFEQFLTNISGSTESPFEYLLDFDSFDSNPDRCRYETASPLWRQRIFCQIVPIFKRKFEEPGSQKHVLVEMLPHLLTFAVPLDFQQLKKQFAMLLPVLIQTIGMEDVIPSHVTRTIPMFLTISEPLQPKDLGTVVKYLCSITRDNDSNMTNLEDALNGLNILARRQPPKSLHSEVPLVVTSINKILGHKKRLLRMMAADVKNNWEMVITK” belongs “not soluble”.
With “MVRKALWKECLRIGGKVPLLNGEKLREIFRSGRGTGRFAKALGIEYGVDTSFNMLKVAKERGIKVALAKGENLPFKSETFDSVFLVVTICFVENPKQVLKEAHRVLKRDGKLYLGLILKESKWAKFYEEKAKNGHPFYKHARFYSFFELKEMVKDIFSFEEMKSTLLEEPQDSEPVKNKEIKPGFYENSGFTCIRLSKKLLEHHHHHH” the entry was “not soluble”; with “MDRLDRKILYLLQENATLSVADIAKKVGLSTTPCWRRIQKLEEDGVIQRRVAVLSPEKVNAHVTVFVSIRTNTHSQEWLKRFSKIVQEFREVIEFYRMSGDIDYLLRVVVPNIEAYDLFYKKLIAKIDIRDVSSSFAMEQIKYTTELPLNYIKLHDKTSEQNS”, “not soluble”.
On to “PCCELITNISIPDDKAQNTLSEIEDAISNILGKPVAYIMSNYDYQKNLRFSGSNEGYCFVRLTSIGGINRSNNSLLADKITKILSNHLSVKPRRVYIEFRDCSAQNFAFSGSLFGGSRSHHHHHH”, for which the “soluble on expression in E. coli” value is reported as “soluble”.
To “MSDEGLAPGKRLSEIRQQQGLSQRRAAELSGLTHSAISTIEQDKVSPAISTLQKLLKVYGLSLSEFFSEPEKPDEPQVVINQDDLIEMGSQGVSMKLVHNGNPNRTLAMIFETYQPGTTTGERIKHQGEEIGTVLEGEIVLTINGQDYHLVAGQSYAINTGIPHSFSNTSAGICRIISAHTPTTF” belongs “not soluble”; to “MNKPTLGIDLDTTLNTLDREWVKRYNEIYKDKLLPSDIKGWDIENYVKPECGKKIYDILKEPHFFRNLGVQPFAETALEELTSIFNIYIVSATHYKVCEDKGNWIKEKFPFISYQNIIFCHNKGLVHLDILIDDNPLNLENFKGNKILFDAHHNKSENRFVRARDWYEAKALCESLKDFL”, “not soluble”; to “MNHMKKNILFDGLRSVARIGETAFVAARAGIKYATEKPSNAKLMRETFESLGSTYIKLGQFIASTPSLFPREYVEEFQGCLDQTPTLPFSYIQEVLAEEFEGRDLNQIFASIDETPLASASIAQVHAARLTTGEDVVIKVQKPGVETILYTDLNVVHWATKMLEKAIPKVKFASLSEIVEEIKIRMVREVDFIEEAQNLDDFVEYLKITNNQAATAPKVYHQFSTRRILTMERLYGVSLTDFDIVKKFAKDPSQVLITAMNTWFGSLMLCKSFHADLHAGNLMLLEDGRIGFIDFGIVGQLNPQVWTACLAFMDALQKTDYTAMAENMLKMGMTKTQIDTQVLAQDLERLFSGVLLADPQEILASKPSDLNDIMLDMVAVGERHGIKFPRDFALLFKQMLYFDRFMRVLAPYTDIYADQRLKMVQTIEPQSLLKH”, “not soluble”.
To “MAPSKSKEKKEKAKTSRRKSGSQTKKDTTSTVSEGKSPTEVADQLLKAKSRPQMYDLLKGHAAFNVPEFVKNLPVNVRLPIPIRDNRRVLCGSDEEFFPGQYVRMEGAEYIIVQAPTKKSSKLIWRVILKDHIRILVCLCHDEQMSGSDDGKCYTYFPTELEQKMEAELMKGTLSIVCKAREGLSMGATKYELELTDSEVVIDKNSDDPNASNYKSHRLIVFHMNTWSGQKPTSGNALEQAQNVALFFREVKKFEMDILRKSMENFVPPVMLQSFDGINRASTGWVALMLLRDVEKRECFDVPSLIKAIMKFRNGSISTYYQFCFCMAVCLNIGKHTNWCANDCSTALTDLMEKFGNRKLNELGNLAV” belongs “not soluble”.
